Results published in US20170184612A1, “USE OF LEUKOCYTES AND NOVEL BIOMARKERS IN THE DIAGNOSIS, CONFIRMATION, AND TREATMENT OF A NEUROLOGICAL DISORDER” (The Trustees of Columbia University in the City of New York, priority 2014, published 2017).

Key:
[1] = test system: primary TH+ neurons (SN, VTA, LC); test: MHC-I induction in murine primary catecholamine neurons, immunofluorescence; type: cell-based, mouse
Excerpt: To study the mechanisms underlying the preferential display of MHC-I by catecholamine neurons, primary neuronal cultures of >7 days in vitro prepared from 0-3 day old C57BL/6 mice were examined in the studies herein (Sulzer et al., 2008). DA neurons from VTA and SN and NE neurons of the LC were identified by immunolabel for TH. MHC-I staining was examined using an antibody raised against the H-2K^b and H-2D^b class I mouse alloantigens.
B6.129P2-B2m^tm1Unc/J mice were generated by a targeted disruption of the β2m gene, and have little or no MHC-I protein expression on the cell surface^68. […]
(§1) Images were captured using a Leica SP5 microscope system. There was no fluorescence bleed-through of secondary antibodies under the conditions used. […]
(§2) In order to assess the proportion of TH^+ and MAP-2^+ neurons that expressed MHC-I^+, first TH^+ and MAP-2^+ neurons were counted in 24 fields surrounding the border of the well at 20× magnification. The number of TH^+ or MAP-2^+ neurons with intact soma and two or more neurites equal to or greater than the diameter of the cell soma was counted. […]

VM DA (TH+) neurons = test: Antigen processing and presentation, […]-MHC-I immunolabel; type: cell-based, mouse; details: OVA 7 days, then IFN-γ 72 h
Procedure: Following exposure of SN neuronal cultures to OVA or vehicle for 7 days, neurons were exposed to IFN-γ or saline for 72 h (note that these cultures were never exposed to […] (SEQ ID NO: 9)). The cultures were then double immunolabeled for TH and an antibody that recognizes only the MHC-I complex when is occupied by […] (SEQ ID NO: 9) ([…]-MHC-I). Occasional label of astrocytes, but not neurons, for […]-MHC-I was observed when the cultures were exposed to the vehicle, IFN-γ, or OVA alone (FIG. 5A). […] The results herein indicate that OVA had been processed to […] (SEQ ID NO: 9) within these mixed neuron/astrocyte cultures and loaded into the MHC-I groove within neuronal cytosol, and that the resulting complex was presented on the neuronal plasma membrane.
IFN-γ (R&D Systems) was used at a range of non-toxic concentrations for neurons or OT-1 cells (10 μg/ml-100 ng/ml, 72h). […]
as §1, §2

[2] = test system: hES derived DA neuronal cultures; test: MHC-I induction in hES-derived DA neurons, immunofluorescence; type: cell-based, human; details: 100 ng/ml, 72h
Procedure: (§3) hES derived DA neuronal cultures were obtained as described (Kriks et al., 2011). Briefly, H9 human ES cells were subjected to dual SMAD-inhibition followed by exposure to sonic hedgehog, purmorphamine, FGF8 and CHIR99021. Neurons were passaged on day 20, replated on glass-bottom dishes on day 30 at a density of 200.000 cells per 20 μl droplet, and then matured in Neurobasal media with the addition of B27 supplement, GDNF, BDNF, ascorbic acid, cAMP, TGFbeta and DAPT. hES derived spinal motor neuron (MN) cultures expressing EYFP under control of the human synapsin promoter were generated by exposure to dual SMAD-inhibition followed by caudalization with retinoid acid and ventralization through the hedgehog pathway. MN aggregates were replated on day 20 and matured in Neurobasal media with the addition of B27 supplement, GDNF, BDNF, ascorbic acid, cAMP and DAPT.
(§4) Cultures were treated with human IFN-γ (eBioscience) at a non-toxic concentration for hES (100 ng/ml, 72h). Cultures were then incubated with the MHC-I antibody prior to fixation in 4% paraformaldehyde and double immunofluorescence for TH and MHC-I as above. Micrographs were acquired using a Leica TCS SP5-II inverted confocal microscope.

[3] = test system: hES derived spinal motor neuron (MN) cultures; test: MHC-I induction in hES-derived motor neurons, immunofluorescence; type: cell-based, human; details: 100 ng/ml, 72h
Procedure: as §3, §4

B1: IFN-γ: recombinant mouse IFN-γ (R&D Systems) (protein)
chain: HGTVIESLESLNNYFNSSGIDVEEKSLFLDIWRNWQKDGDMKILQSQIISFYLRLFEVLKDNQAISNNISVIESHLITTFFSNSKAKKDAFMSIAKFEVNNPQVQRQAFNELIRVVHQLLPESSLRKRKRSRC
MHC-I (H-2Kb and H-2Db) immunolabel ([1]; neurons from β2m deficient (MHC-I null, KO) mice): did not induce MHC-I | plasma membrane MHC-I expression on TH+ neurons ([1]; wild type C57BL/6 neurons): induced robust plasma membrane neuronal MHC-I expression

B2: OVA: chicken OVA, a 385 amino acid foreign protein (protein, UniProt P01012 2-386, looked up)
Ovalbumin: GSIGAASMEFCFDVFKELKVHHANENIFYCPIAIMSALAMVYLGAKDSTRTQINKVVRFDKLPGFGDSIEAQCGTSVNVHSSLRDILNQITKPNDVYSFSLASRLYAEERYPILPEYLQCVKELYRGGLEPINFQTAADQARELINSWVESQTNGIIRNVLQPSSVDSQTAMVLVNAIVFKGLWEKAFKDEDTQAMPFRVTEQESKPVQMMYQIGLFRVASMASEKMKILELPFASGTMSMLVLLPDEVSGLEQLESIINFEKLTEWTSSNVMEERKIKVYLPRMKMEEKYNLTSVLMAMGITDVFSSSANLSGISSAESLKISQAVHAAHAEINEAGREVVGSAEAGVDAASVSEEFRADHPFLFCIKHIATNAVLFFGRCVSP
TH+ neurons immunolabeled for SIINFEKL-MHC-I (VM DA (TH+) neurons): ~10%

B3: human IFN-γ: human IFN-γ (eBioscience), proinflammatory cytokine (protein, UniProt P01579 24-161, looked up)
Interferon gamma: QDPYVKEAENLKKYFNAGHSDVADNGTLFLGILKNWKEESDRKIMQSQIVSFYFKLFKNFKDDQSIQKSVETIKEDMNVKFFNSNKKKRDDFEKLTNYSVTDLNVQRKAIHELIQVMAELSPAAKTGKRKRSQMLFRG
plasma membrane expression of MHC-I by TH+ neurons [2]: virtually all TH+ neurons | MHC-I expression in mature motor neurons [3]: no MHC-I expression was observed
